Results taken from paper PMC3819363, “Post-Transcriptional Regulator Hfq Binds Catalase HPII: Crystal Structure of the Complex” (PLoS ONE, 2013).

Target: the molecule itself
Experiment: SDS-PAGE; samples in SDS buffer on a polyacrylamide gel; bands of the dissolved crystals identified by PMF MALDI-TOF; crystals heated at ~95°C for 5 min

B1: catalase HPII (endogenous, Escherichia coli) (enzyme, Escherichia coli (endogenous in E. coli), UniProt P21179 1-753, looked up)
chain: MSQHNEKNPHQHQSPLHDSSEAKPGMDSLAPEDGSHRPAAEPTPPGAQPTAPGSLKAPDTRNEKLNSLEDVRKGSENYALTTNQGVRIADDQNSLRAGSRGPTLLEDFILREKITHFDHERIPERIVHARGSAAHGYFQPYKSLSDITKADFLSDPNKITPVFVRFSTVQGGAGSADTVRDIRGFATKFYTEEGIFDLVGNNTPIFFIQDAHKFPDFVHAVKPEPHWAIPQGQSAHDTFWDYVSLQPETLHNVMWAMSDRGIPRSYRTMEGFGIHTFRLINAEGKATFVRFHWKPLAGKASLVWDEAQKLTGRDPDFHRRELWEAIEAGDFPEYELGFQLIPEEDEFKFDFDLLDPTKLIPEELVPVQRVGKMVLNRNPDNFFAENEQAAFHPGHIVPGLDFTNDPLLQGRLFSYTDTQISRLGGPNFHEIPINRPTCPYHNFQRDGMHRMGIDTNPANYEPNSINDNWPRETPPGPKRGGFESYQERVEGNKVRERSPSFGEYYSHPRLFWLSQTPFEQRHIVDGFSFELSKVVRPYIRERVVDQLAHIDLTLAQAVAKNLGIELTDDQLNITPPPDVNGLKKDPSLSLYAIPDGDVKGRVVAILLNDEVRSADLLAILKALKAKGVHAKLLYSRMGEVTADDGTVLPIAATFAGAPSLTVDAVIVPCGNIADIADNGDANYYLMEAYKHLKPIALAGDARKFKATIKIADQGEEGIVEADSADGSFMDELLTLMAAHRVWSRIPKIDKIPA
notes: catalase HPII of Escherichia coli, product of the katE gene, endogenous protein, printed molecular weight 84 kDa; residues 27-753 and one heme resolved in the map; Homotetramer, one heme per subunit; also called HPII tetramer; source: endogenous, E. coli overexpressing PomAB mutants
  stoichiometry N: 2 subunits
